Measured values reported in patent publication US12698494.

Columns and labels:
[1] = target: T1, FRETS-VWF73 fluorogenic substrate, P04275
T1 chain: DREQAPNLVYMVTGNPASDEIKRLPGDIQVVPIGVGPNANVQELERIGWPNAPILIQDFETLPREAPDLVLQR

[2] = target: Von Willebrand Factor (VWF) multimers, P04275

| Protein | Activity level (% relative to wild type ADAMTS13) VWFFRETS73 (% relative to wild type ADAMTS13) [1] | Ability to process VWF multimers under denaturing conditions [2] | vortex assay: processing of VWF multimers under shear stress [2] | FRETS-VWF73 activity relative to wild-type ADAMTS13 (text value, differs from Table 4) [1] |
| --- | --- | --- | --- | --- |
| ADAMTS13 variant NGLY7 (664EYGNLT669 to 664ENVTLT669; glycan shift from N667 to Y665) (protein) AAGGILHLELLVAVGPDVFQAHQEDTERYVLTNLNIGAELLRDPSLGAQFRVHLVKMVILTEPEGAPNITANLTSSLLSVCGWSQTINPEDDTDPGHADLVLYITRFDLELPDGNRQVRGVTQLGGACSPTWSCLITEDTGFDLGVTIAHEIGHSFGLEHDGAPGSGCGPSGHVMASDGAAPRAGLAWSPCSRRQLLSLLSAGRARCVWDPPRPQPGSAGHPPDAQPGLYYSANEQCRVAFGPKAVACTFAREHLDMCQALSCHTDPLDQSSCSRLLVPLLDGTECGVEKWCSKGRCRSLVELTPIAAVHGRWSSWGPRSPCSRSCGGGVVTRRRQCNNPRPAFGGRACVGADLQAEMCNTQACEKTQLEFMSQQCARTDGQPLRSSPGGASFYHWGAAVPHSQGDALCRHMCRAIGESFIMKRGDSFLDGTRCMPSGPREDGTLSLCVSGSCRTFGCDGRMDSQQVWDRCQVCGGDNSTCSPRKGSFTAGRAREYVTFLTVTPNLTSVYIANHRPLFTHLAVRIGGRYVVAGKMSISPNTTYPSLLEDGRVEYRVALTEDRLPRLEEIRIWGPLQEDADIQVYRRYGEENVTLTRPDITFTYFQPKPRQAWVWAAVRGPCSVSCGAGLRWVNYSCLDQARKELVETVQCQGSQQPPAWPEACVLEPCPPYWAVGDFGPCSASCGGGLRERPVRCVEAQGSLLKTLPPARCRAGAQQPAVALETCNPQPCPARWEVSEPSSCTSAGGAGLALENETCVPGADGLEAPVTEGPGSVDEKLPAPEPCVGMSCPPGWGHLDATSAGEKAPSPWGSIRTGAQAAHVWTPAAGSCSVSCGRGLMELRFLCMDSALRVPVQEELCGLASKPGSRREVCQAVPCPARWQYKLAACSVSCGRGVVRRILYCARAHGEDDGEEILLDTQCQGLPRPEPQEACSLEPCPPRWKVMSLGPCSASCGLGTARRSVACVQLDQGQDVEVDEAACAALVRPEASVPCLIADCTYRWHVGTWMECSVSCGDGIQRRRDTCLGPQAQAPVPADFCQHLPKPVTVRGCWAGPCVGQGTPSLVPHEEAAAPGRTTATPAGASLEWSQARGLLFSPAPQPRRLLPGPQENSVQSSACGRQHLEPTGTIDMRGPGQADCAVAIGRPLGEVVTLRVLESSLNCSAGDMLLLWGRLTWRKMCRKLLDMTFSSKTNTLVVRQRCGRPGGGVLLRYGSQLAPETFYRECDMQLFGPWGEIVSPSLSPATSNAGGCRLFINVAPHARIAIHALATNMGAGTEGANASYILIRDTHSLRTTAFHGQQVLYWESESSQAEMEFSEGFLKAQASLRGQYWTLQSWVPEMQDPQSWKGKEGT | 125 | +++++ | NGLY7 was clearly capable of processing the large VWF multimers | – |
| ADAMTS13 variant NGLY3 + NGLY8 (607GNMSI611/667LNVTA671) (protein) AAGGILHLELLVAVGPDVFQAHQEDTERYVLTNLNIGAELLRDPSLGAQFRVHLVKMVILTEPEGAPNITANLTSSLLSVCGWSQTINPEDDTDPGHADLVLYITRFDLELPDGNRQVRGVTQLGGACSPTWSCLITEDTGFDLGVTIAHEIGHSFGLEHDGAPGSGCGPSGHVMASDGAAPRAGLAWSPCSRRQLLSLLSAGRARCVWDPPRPQPGSAGHPPDAQPGLYYSANEQCRVAFGPKAVACTFAREHLDMCQALSCHTDPLDQSSCSRLLVPLLDGTECGVEKWCSKGRCRSLVELTPIAAVHGRWSSWGPRSPCSRSCGGGVVTRRRQCNNPRPAFGGRACVGADLQAEMCNTQACEKTQLEFMSQQCARTDGQPLRSSPGGASFYHWGAAVPHSQGDALCRHMCRAIGESFIMKRGDSFLDGTRCMPSGPREDGTLSLCVSGSCRTFGCDGRMDSQQVWDRCQVCGGDNSTCSPRKGSFTAGRAREYVTFLTVTPNLTSVYIANHRPLFTHLAVRIGGRYVVAGNMSISPNTTYPSLLEDGRVEYRVALTEDRLPRLEEIRIWGPLQEDADIQVYRRYGEEYGLNVTADITFTYFQPKPRQAWVWAAVRGPCSVSCGAGLRWVNYSCLDQARKELVETVQCQGSQQPPAWPEACVLEPCPPYWAVGDFGPCSASCGGGLRERPVRCVEAQGSLLKTLPPARCRAGAQQPAVALETCNPQPCPARWEVSEPSSCTSAGGAGLALENETCVPGADGLEAPVTEGPGSVDEKLPAPEPCVGMSCPPGWGHLDATSAGEKAPSPWGSIRTGAQAAHVWTPAAGSCSVSCGRGLMELRFLCMDSALRVPVQEELCGLASKPGSRREVCQAVPCPARWQYKLAACSVSCGRGVVRRILYCARAHGEDDGEEILLDTQCQGLPRPEPQEACSLEPCPPRWKVMSLGPCSASCGLGTARRSVACVQLDQGQDVEVDEAACAALVRPEASVPCLIADCTYRWHVGTWMECSVSCGDGIQRRRDTCLGPQAQAPVPADFCQHLPKPVTVRGCWAGPCVGQGTPSLVPHEEAAAPGRTTATPAGASLEWSQARGLLFSPAPQPRRLLPGPQENSVQSSACGRQHLEPTGTIDMRGPGQADCAVAIGRPLGEVVTLRVLESSLNCSAGDMLLLWGRLTWRKMCRKLLDMTFSSKTNTLVVRQRCGRPGGGVLLRYGSQLAPETFYRECDMQLFGPWGEIVSPSLSPATSNAGGCRLFINVAPHARIAIHALATNMGAGTEGANASYILIRDTHSLRTTAFHGQQVLYWESESSQAEMEFSEGFLKAQASLRGQYWTLQSWVPEMQDPQSWKGKEGT | 120 | ++ | Combinations of NGLY3/NGLY8 also revealed a reduced ability to process VWF multimers | NGLY3 plus NGLY8 was 75% active when compared to wild type ADAMTS13 |
| ADAMTS13 variant NGLY8 (667NLTRP671 to 667LNVTA671; glycan shift from N667 to L668) (protein) AAGGILHLELLVAVGPDVFQAHQEDTERYVLTNLNIGAELLRDPSLGAQFRVHLVKMVILTEPEGAPNITANLTSSLLSVCGWSQTINPEDDTDPGHADLVLYITRFDLELPDGNRQVRGVTQLGGACSPTWSCLITEDTGFDLGVTIAHEIGHSFGLEHDGAPGSGCGPSGHVMASDGAAPRAGLAWSPCSRRQLLSLLSAGRARCVWDPPRPQPGSAGHPPDAQPGLYYSANEQCRVAFGPKAVACTFAREHLDMCQALSCHTDPLDQSSCSRLLVPLLDGTECGVEKWCSKGRCRSLVELTPIAAVHGRWSSWGPRSPCSRSCGGGVVTRRRQCNNPRPAFGGRACVGADLQAEMCNTQACEKTQLEFMSQQCARTDGQPLRSSPGGASFYHWGAAVPHSQGDALCRHMCRAIGESFIMKRGDSFLDGTRCMPSGPREDGTLSLCVSGSCRTFGCDGRMDSQQVWDRCQVCGGDNSTCSPRKGSFTAGRAREYVTFLTVTPNLTSVYIANHRPLFTHLAVRIGGRYVVAGKMSISPNTTYPSLLEDGRVEYRVALTEDRLPRLEEIRIWGPLQEDADIQVYRRYGEEYGLNVTADITFTYFQPKPRQAWVWAAVRGPCSVSCGAGLRWVNYSCLDQARKELVETVQCQGSQQPPAWPEACVLEPCPPYWAVGDFGPCSASCGGGLRERPVRCVEAQGSLLKTLPPARCRAGAQQPAVALETCNPQPCPARWEVSEPSSCTSAGGAGLALENETCVPGADGLEAPVTEGPGSVDEKLPAPEPCVGMSCPPGWGHLDATSAGEKAPSPWGSIRTGAQAAHVWTPAAGSCSVSCGRGLMELRFLCMDSALRVPVQEELCGLASKPGSRREVCQAVPCPARWQYKLAACSVSCGRGVVRRILYCARAHGEDDGEEILLDTQCQGLPRPEPQEACSLEPCPPRWKVMSLGPCSASCGLGTARRSVACVQLDQGQDVEVDEAACAALVRPEASVPCLIADCTYRWHVGTWMECSVSCGDGIQRRRDTCLGPQAQAPVPADFCQHLPKPVTVRGCWAGPCVGQGTPSLVPHEEAAAPGRTTATPAGASLEWSQARGLLFSPAPQPRRLLPGPQENSVQSSACGRQHLEPTGTIDMRGPGQADCAVAIGRPLGEVVTLRVLESSLNCSAGDMLLLWGRLTWRKMCRKLLDMTFSSKTNTLVVRQRCGRPGGGVLLRYGSQLAPETFYRECDMQLFGPWGEIVSPSLSPATSNAGGCRLFINVAPHARIAIHALATNMGAGTEGANASYILIRDTHSLRTTAFHGQQVLYWESESSQAEMEFSEGFLKAQASLRGQYWTLQSWVPEMQDPQSWKGKEGT | 76 | ++ | NGLY8 displayed a reduced ability to process VWF multimers when compared to NGLY3 and NGLY7 | NGLY8 was 75% active when compared to wild-type ADAMTS13 |
| ADAMTS13 variant NGLY3 + NGLY7 (607GNMSI611/664ENVTLT669) (protein) AAGGILHLELLVAVGPDVFQAHQEDTERYVLTNLNIGAELLRDPSLGAQFRVHLVKMVILTEPEGAPNITANLTSSLLSVCGWSQTINPEDDTDPGHADLVLYITRFDLELPDGNRQVRGVTQLGGACSPTWSCLITEDTGFDLGVTIAHEIGHSFGLEHDGAPGSGCGPSGHVMASDGAAPRAGLAWSPCSRRQLLSLLSAGRARCVWDPPRPQPGSAGHPPDAQPGLYYSANEQCRVAFGPKAVACTFAREHLDMCQALSCHTDPLDQSSCSRLLVPLLDGTECGVEKWCSKGRCRSLVELTPIAAVHGRWSSWGPRSPCSRSCGGGVVTRRRQCNNPRPAFGGRACVGADLQAEMCNTQACEKTQLEFMSQQCARTDGQPLRSSPGGASFYHWGAAVPHSQGDALCRHMCRAIGESFIMKRGDSFLDGTRCMPSGPREDGTLSLCVSGSCRTFGCDGRMDSQQVWDRCQVCGGDNSTCSPRKGSFTAGRAREYVTFLTVTPNLTSVYIANHRPLFTHLAVRIGGRYVVAGNMSISPNTTYPSLLEDGRVEYRVALTEDRLPRLEEIRIWGPLQEDADIQVYRRYGEENVTLTRPDITFTYFQPKPRQAWVWAAVRGPCSVSCGAGLRWVNYSCLDQARKELVETVQCQGSQQPPAWPEACVLEPCPPYWAVGDFGPCSASCGGGLRERPVRCVEAQGSLLKTLPPARCRAGAQQPAVALETCNPQPCPARWEVSEPSSCTSAGGAGLALENETCVPGADGLEAPVTEGPGSVDEKLPAPEPCVGMSCPPGWGHLDATSAGEKAPSPWGSIRTGAQAAHVWTPAAGSCSVSCGRGLMELRFLCMDSALRVPVQEELCGLASKPGSRREVCQAVPCPARWQYKLAACSVSCGRGVVRRILYCARAHGEDDGEEILLDTQCQGLPRPEPQEACSLEPCPPRWKVMSLGPCSASCGLGTARRSVACVQLDQGQDVEVDEAACAALVRPEASVPCLIADCTYRWHVGTWMECSVSCGDGIQRRRDTCLGPQAQAPVPADFCQHLPKPVTVRGCWAGPCVGQGTPSLVPHEEAAAPGRTTATPAGASLEWSQARGLLFSPAPQPRRLLPGPQENSVQSSACGRQHLEPTGTIDMRGPGQADCAVAIGRPLGEVVTLRVLESSLNCSAGDMLLLWGRLTWRKMCRKLLDMTFSSKTNTLVVRQRCGRPGGGVLLRYGSQLAPETFYRECDMQLFGPWGEIVSPSLSPATSNAGGCRLFINVAPHARIAIHALATNMGAGTEGANASYILIRDTHSLRTTAFHGQQVLYWESESSQAEMEFSEGFLKAQASLRGQYWTLQSWVPEMQDPQSWKGKEGT | 135 | +++++ | combination of NGLY3/NGLY7 retained proteolytic activity towards multimeric VWF | NGLY3 plus NGLY7 was 125% active when compared to the wild type |
